According to publication PMC9481538, “The interaction between LC8 and LCA5 reveals a novel oligomerization function of LC8 in the ciliary-centrosome system” (Scientific Reports, 2022):
Where no end group is shown, it is not given here. The star is where a group is joined. FITC = O=C1OC2(c3ccc(O)cc3Oc3cc(O)ccc32)c2ccc(NC(=S)*)cc21

B1: sLCA5-ΔVQT (domain or fragment, human (cDNA library from HEK293), UniProt Q86VQ0 96-430, looked up)
chain: DTDLVTKRILSARLLKINELQNEVSELQVKLAELLKENKSLKRLQYRQEKALNKFEDAENEISQLIFRHNNEITALKERLRKSQEKERATEKRVKDTESELFRTKFSLQKLKEISEARHLPERDDLAKKLVSAELKLDDTERRIKELSKNLELSTNSFQRQLLAERKRAYEAHDENKVLQKEVQRLYHKLKEKERELDIKNIYSNRLPKSSPNKEKELALRKNAACQSDFADLCTKGAAAMEDFKPEEYPLTPETIMCYENKWEEPGHLTLDLQSQKQDRHGEAGILNPIMEREEKFVTDEELHVVKQEVEKLEDEWEREELDKKQKEKASLLER
notes: position 333 worked out from the printed motif limits; Made by quick-change mutagenesis from sLCA5-WT; also called ΔVQT mutant; source: E. coli BL21 (DE3) Rosetta, purified (amylose resin, IMAC); clarified lysate for the pull-down; not shown: MBP, N-terminal, kept; His6, C-terminal, kept
B2: sLCA5-ΔCQS (domain or fragment, human (cDNA library from HEK293), UniProt Q86VQ0 96-430, looked up)
chain: DTDLVTKRILSARLLKINELQNEVSELQVKLAELLKENKSLKRLQYRQEKALNKFEDAENEISQLIFRHNNEITALKERLRKSQEKERATEKRVKDTESELFRTKFSLQKLKEISEARHLPERDDLAKKLVSAELKLDDTERRIKELSKNLELSTNSFQRQLLAERKRAYEAHDENKVLQKEVQRLYHKLKEKERELDIKNIYSNRLPKSSPNKEKELALRKNAAAAADFADLCTKGVQTMEDFKPEEYPLTPETIMCYENKWEEPGHLTLDLQSQKQDRHGEAGILNPIMEREEKFVTDEELHVVKQEVEKLEDEWEREELDKKQKEKASLLER
notes: position 321 worked out from the printed motif limits; Made by quick-change mutagenesis from sLCA5-WT; also called ΔCQS mutant; source: E. coli BL21 (DE3) Rosetta, purified (amylose resin, IMAC); clarified lysate for the pull-down; not shown: MBP, N-terminal, kept; His6, C-terminal, kept
B3: sLCA5-WT (LCA5 96-430 with N-terminal MBP and C-terminal 6xHis) (domain or fragment, human (cDNA library from HEK293), UniProt Q86VQ0 96-430, looked up)
chain: DTDLVTKRILSARLLKINELQNEVSELQVKLAELLKENKSLKRLQYRQEKALNKFEDAENEISQLIFRHNNEITALKERLRKSQEKERATEKRVKDTESELFRTKFSLQKLKEISEARHLPERDDLAKKLVSAELKLDDTERRIKELSKNLELSTNSFQRQLLAERKRAYEAHDENKVLQKEVQRLYHKLKEKERELDIKNIYSNRLPKSSPNKEKELALRKNAACQSDFADLCTKGVQTMEDFKPEEYPLTPETIMCYENKWEEPGHLTLDLQSQKQDRHGEAGILNPIMEREEKFVTDEELHVVKQEVEKLEDEWEREELDKKQKEKASLLER
notes: Monomer of the construct 84 kDa; also called wild-type LCA5 fragment; source: E. coli BL21 (DE3) Rosetta, purified (amylose resin, IMAC); clarified lysate for the pull-down; not shown: MBP, N-terminal, kept; His6, C-terminal, kept
B4: FITC-labelled BMF (Bcl-2-modifying factor) peptide (TSQEDKATQTL) (peptide)
peptide: {FITC}-TSQEDKATQTL
notes: also called BMF peptide; fluorescein labeled BMF peptide

Columns and labels:
[1] = target: T1, Dynein light chain LC8 (DYNLL2), 6xHis-tagged (UniProt Q96FJ2 1-89); experiment: ITC; MBP-fused LCA5 construct in the cell, LC8 injected, 37 injections of 1 μl; 37 °C, PBS pH 7.4, 1 mM TCEP; details: both partners purified
T1 construct: Dynein light chain LC8 (DYNLL2), an 89-residue protein; pEV vector with N-terminal 6xHis-tag; The calculated dimer mass of 20.7 kDa fits the untagged protein, so the His tag may have been removed; source: E. coli BL21 (DE3) Rosetta, purified (Ni IMAC, anion exchange on HiTrap Q-HP, SEC on Superdex 75)

[2] = target: the molecule itself; experiment: SEC; Superose 6 Increase 10/300, DPBS with 200 μM TCEP; LC8 or sLCA5-WT alone; masses estimated from a calibration curve
[3] = target: T1, Dynein light chain LC8 (DYNLL2), …; experiment: fluorescence polarisation; competitive: 50 nM FITC-BMF peptide with LC8 at 80% saturation (12 μM), titrated with LCA5 peptide from 500 μM in two-fold dilutions; 25 °C, PBS, 2 mM TCEP, 0.05% Brij; triplicates; details: both partners purified

T1 sequence (Q96FJ2 whole entry, looked up, the tested form may be a part): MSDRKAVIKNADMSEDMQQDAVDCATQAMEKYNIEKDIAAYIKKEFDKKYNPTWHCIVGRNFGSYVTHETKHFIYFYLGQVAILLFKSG

| Binder | Kd [1] [nM] | stoichiometry N [2] | binding result [3] |
| --- | --- | --- | --- |
| B1 | 1220 ± 80 |  |  |
| B2 | 680 ± 80 |  |  |
| B3 | 760 ± 60 | ~4 |  |
| B4 |  |  | binds |
